Drawing on the supplement of paper PMC10598134, this text covers collision cross section for 61 sequences.

± gives the standard deviation.

The nature of the data set: collision cross section of modified peptide (TIMS, N2, iRT-aligned); higher = larger / more extended gas-phase ion. The gist of the method:
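Values are averages of 1–3 technical replicates of the most abundant feature for each charge state. Collision cross section was obtained from the Mason-Schamp equation after 1/K0 calibration with three reference ions and run-wise alignment to the median iRT peptide deviation. Synthetic peptide pools (iRT standard spiked 1:40) were separated on a 120-min nanoflow C18 gradient at 60 °C, analysed on a timsTOF Pro/HT (dda-PASEF, nitrogen, ~2.4 mbar) and identified with MaxQuant.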

The mark [1] stands for this setting: charge state: 2, modification: Hydroxyproline.
Where [2] appears, read: charge state: 3, modification: Hydroxyproline.
The mark [3] stands for this setting: charge state: 2, modification: Phospho (Y).
The mark [4] stands for this setting: charge state: 2, modification: Citrullination (R).
Setting [5] is: charge state: 3, modification: Citrullination (R).
Where [6] appears, read: charge state: 3, modification: Methyl (R).
[7] abbreviates: charge state: 2, modification: Nitro (Y).
Where [8] appears, read: charge state: 2, modification: HexNAc (ST).
Where [9] appears, read: charge state: 3, modification: HexNAc (ST).
Where [10] appears, read: charge state: 2, modification: Methyl (R).
The mark [11] stands for this setting: charge state: 2, modification: Acetyl (K).
The mark [12] stands for this setting: charge state: 2, modification: Butyryl.
Where [13] appears, read: charge state: 2, modification: Glutarylation.
Where [14] appears, read: charge state: 2, modification: GlyGly (K).
[15] abbreviates: charge state: 3, modification: GlyGly (K).
Setting [16] is: charge state: 2, modification: Malonyl.

In the case of GPPGAKGNK [_GPP(Hydroxyproline)GAKGNK_], under setting [1], the collision cross section is recorded as 311.98 ± 0.24 Å². Same read-out and setting: to “GPPGPAGPSGESR [_GPP(Hydroxyproline)GPAGPSGESR_]” belongs 344.62 ± 1.9 Å²; to GPPGPPGK [_GPPGP(Hydroxyproline)PGK_], 274.06 ± 0.78 Å²; to GPPGPPGR [_GPPGPP(Hydroxyproline)GR_], 291.03 ± 0.88 Å². “GPPGPPGRPGNSGIR [_GPPGPPGRP(Hydroxyproline)GNSGIR_]” gave a collision cross section under setting [2] of 429.49 ± 1.3 Å². Regarding “GPPPSYGGSSR [_GPPPSY(Phospho (Y))GGSSR_]”, the collision cross section under setting [3] was 343.35 ± 0.65 Å². “GPPRGGPGGELPR [_GPPR(Citrullination (R))GGPGGELPR_]”: the collision cross section is 368.26 ± 0.27 Å² under setting [4] and 454.52 ± 3.7 Å² under setting [5]. The sequence “GPPRGGPGGELPR [_GPPR(Methyl (R))GGPGGELPR_]” yielded a collision cross section under setting [6] of 472.6 ± 2.6 Å².

As for “GPQNATDSYVHK [_GPQNATDSY(Nitro (Y))VHK_]”, the collision cross section is, setting by setting: under setting [7], 386.3 ± 0.94 Å²; (charge state: 3, modification: Nitro (Y)) 449.51 ± 0.23 Å². As for “GPQNATDSYVHK [_GPQNATDSY(Phospho (Y))VHK_]”, the collision cross section runs as follows: under setting [3], 396.29 ± 0.77 Å²; (charge state: 3, modification: Phospho (Y)) 452.94 ± 1.8 Å². Consider “GQDSTIAASEQQVAAR [_GQDS(HexNAc (ST))TIAASEQQVAAR_]”, for which the collision cross section reads like this: under setting [8], 438.46 ± 0.56 Å²; under setting [9], 532.78 ± 0.19 Å². Regarding “GQKGEPGLPGHPGK [_GQKGEPGLP(Hydroxyproline)GHPGK_]”, the collision cross section is, setting by setting: under setting [1], 379.44 ± 1.1 Å²; under setting [2], 420.23 ± 0.34 Å². GQQGEPGPK [_GQQGEP(Hydroxyproline)GPK_] returned a collision cross section under setting [1] of 313.43 ± 0.56 Å².

Regarding “GRGAAAAGGPQR [_GR(Citrullination (R))GAAAAGGPQR_]”, the collision cross section under setting [4] is recorded as 334.88 ± 0.28 Å².

On to “GRGAAAAGGPQR [_GR(Methyl (R))GAAAAGGPQR_]”, for which the collision cross section is recorded as 338.98 ± 2.7 Å² under setting [10] and 434.02 ± 3.5 Å² under setting [6]. Turning to “GRGAANDSTQFTVAGR [_GR(Citrullination (R))GAANDSTQFTVAGR_]”, the collision cross section reads like this: under setting [4], 411.84 ± 0.81 Å²; under setting [5], 488.59 ± 0.56 Å².

The sequence “GRGAANDSTQFTVAGR [_GR(Methyl (R))GAANDSTQFTVAGR_]” displayed a collision cross section under setting [6] of 468.2 ± 2.7 Å².

In turn, “GRGAPPPPPSR [_GR(Citrullination (R))GAPPPPPSR_]” displayed a collision cross section under setting [4] of 339.21 ± 1.2 Å².

On to GRGAPPPPPSR [_GR(Methyl (R))GAPPPPPSR_], for which the collision cross section is, setting by setting: under setting [10], 339.22 Å²; under setting [6], 437.5 Å². With “GRGGAESHTFK [_GR(Citrullination (R))GGAESHTFK_]”, the collision cross section stood at 374.44 ± 0.39 Å² under setting [4] and 436.66 ± 2.2 Å² under setting [5]. The sequence GRGGAESHTFK [_GR(Methyl (R))GGAESHTFK_] displayed a collision cross section under setting [10] of 352.3 ± 2.4 Å² and a collision cross section under setting [6] of 441.34 ± 2.6 Å². With “GRGGPGPAQR [_GR(Citrullination (R))GGPGPAQR_]”, the collision cross section under setting [4] is on record as 319.56 ± 0.91 Å². As to GRGGPGPAQR [_GR(Methyl (R))GGPGPAQR_], the collision cross section was found to be 327.6 ± 3 Å² under setting [10] and 431.84 ± 5.1 Å² under setting [6]. “GRGLPGPAESLR [_GR(Citrullination (R))GLPGPAESLR_]” showed a collision cross section under setting [4] of 366.62 ± 0.53 Å². For “GRGLPGPAESLR [_GR(Methyl (R))GLPGPAESLR_]”, the collision cross section under setting [6] was found to be 459.68 ± 1.5 Å².

Consider “GRGTGEAEEEYVGPR [_GR(Citrullination (R))GTGEAEEEYVGPR_]”, for which the collision cross section turned out to be 411.48 ± 0.42 Å² under setting [4] and 487 ± 5.6 Å² under setting [5].

“GRGTGEAEEEYVGPR [_GR(Methyl (R))GTGEAEEEYVGPR_]” came in with a collision cross section under setting [6] of 491.55 ± 1.6 Å². Under setting [4], “GRGTSQLAEGATAK [_GR(Citrullination (R))GTSQLAEGATAK_]” registered a collision cross section of 396.62 ± 1 Å². Take “GRGTSQLAEGATAK [_GR(Methyl (R))GTSQLAEGATAK_]”: the collision cross section amounted to 391.78 ± 1.4 Å² under setting [10] and 464.6 ± 2.7 Å² under setting [6]. For the sequence “GRGVGSPEPGPTAPYLGR [_GR(Citrullination (R))GVGSPEPGPTAPYLGR_]”, the collision cross section runs as follows: under setting [4], 422.7 ± 0.55 Å²; under setting [5], 509.44 ± 39 Å². Regarding “GRGVGSPEPGPTAPYLGR [_GR(Methyl (R))GVGSPEPGPTAPYLGR_]”, the collision cross section under setting [6] was 520.34 ± 0.91 Å². Consider “GRGVGSPEPGPTAPYLGRR [_GR(Citrullination (R))GVGSPEPGPTAPYLGRR_]”, for which, under setting [5], the collision cross section turned out to be 497.66 ± 1.9 Å². Sequence “GRGYFEHR [_GR(Citrullination (R))GYFEHR_]” displayed a collision cross section under setting [4] of 339.49 ± 1.6 Å² and a collision cross section under setting [5] of 411.67 ± 1.3 Å².

Turning to GRGYFEHR [_GR(Methyl (R))GYFEHR_], the collision cross section under setting [10] was 342.05 Å² and the collision cross section under setting [6] was 410.57 ± 5.9 Å². “GSAPPGPVPEGSIR [_GS(HexNAc (ST))APPGPVPEGSIR_]” showed a collision cross section under setting [8] of 399.5 ± 0.63 Å².

Consider GSELQNYFTK [_GSELQNY(Nitro (Y))FTK_], for which, under setting [7], the collision cross section is on record as 363.07 ± 0.55 Å². On to GSELQNYFTK [_GSELQNY(Phospho (Y))FTK_], for which, under setting [3], the collision cross section stood at 373.39 ± 0.68 Å². With “GSGLGARGSSYGVTSTESYK [_GSGLGAR(Citrullination (R))GSSYGVTSTESYK_]”, the collision cross section reads like this: under setting [4], 458.29 ± 0.18 Å²; under setting [5], 548.1 Å². In the case of “GSGLGARGSSYGVTSTESYK [_GSGLGAR(Methyl (R))GSSYGVTSTESYK_]”, the collision cross section under setting [6] turned out to be 519.94 ± 0.91 Å². For the sequence “GSHGQTPSPGALPLGR [_GS(HexNAc (ST))HGQTPSPGALPLGR_]”, the collision cross section under setting [9] was determined as 494.18 ± 4.8 Å². The sequence “GSIGFPGFPGANGEKGGR [_GSIGFP(Hydroxyproline)GFPGANGEKGGR_]” displayed a collision cross section under setting [2] of 489.41 ± 4 Å². For the sequence GSLEKGSPEDK [_GSLEK(Acetyl (K))GSPEDK_], under setting [11], the collision cross section is recorded as 363.99 ± 0.16 Å². For the sequence GSLEKGSPEDK [_GSLEK(Biotin)GSPEDK_], the collision cross section (charge state: 2, modification: Biotin) is recorded as 382.87 Å². For the sequence GSLEKGSPEDK [_GSLEK(Butyryl)GSPEDK_], under setting [12], the collision cross section stood at 371.66 ± 0.71 Å². GSLEKGSPEDK [_GSLEK(Crotonyl)GSPEDK_] registered a collision cross section (charge state: 2, modification: Crotonyl) of 371.77 ± 0.26 Å².

Regarding “GSLEKGSPEDK [_GSLEK(Dimethyl (K))GSPEDK_]”, the collision cross section is 362.2 ± 0.83 Å² (charge state: 2, modification: Dimethyl (K)) and 433.68 ± 2.1 Å² (charge state: 3, modification: Dimethyl (K)). GSLEKGSPEDK [_GSLEK(Formyl)GSPEDK_] yielded a collision cross section (charge state: 2, modification: Formyl) of 358.29 ± 0.88 Å². In the case of “GSLEKGSPEDK [_GSLEK(Gluratylation)GSPEDK_]”, the collision cross section under setting [13] turned out to be 373.46 ± 0.99 Å². As to GSLEKGSPEDK [_GSLEK(GlyGly (K))GSPEDK_], the collision cross section reads like this: under setting [14], 367.44 ± 0.9 Å²; under setting [15], 425.67 ± 1.6 Å².

GSLEKGSPEDK [_GSLEK(Malonyl)GSPEDK_] returned a collision cross section under setting [16] of 365.48 ± 0.011 Å².

Turning to GSLEKGSPEDK [_GSLEK(Methyl (K))GSPEDK_], the collision cross section reads like this: (charge state: 2, modification: Methyl (K)) 357.31 ± 0.34 Å²; (charge state: 3, modification: Methyl (K)) 434.75 ± 5.3 Å².

For the setting “charge state: 2, modification: Propionyl”, GSLEKGSPEDK [_GSLEK(Propionyl)GSPEDK_] registered a collision cross section of 368.76 ± 0.94 Å². In the case of GSLEKGSPEDK [_GSLEK(Succinyl)GSPEDK_], the collision cross section (charge state: 2, modification: Succinyl) came to 366.43 ± 0.51 Å².

“GSLEKGSPEDK [_GSLEK(Trimethyl (K))GSPEDK_]”: the collision cross section is, setting by setting: (charge state: 2, modification: Trimethyl (K)) 363.82 ± 0.64 Å²; (charge state: 3, modification: Trimethyl (K)) 436.7 ± 2.4 Å². Consider “GSLEKGSPEDK [_GSLEK(hydroxyisobutyryl)GSPEDK_]”, for which the collision cross section (charge state: 2, modification: hydroxyisobutyryl) was 376.24 ± 0.91 Å².

The sequence “GSLGAQKLANTCFNEIEK [_GSLGAQK(Acetyl (K))LANTCFNEIEK_]” came in with a collision cross section under setting [11] of 470.8 Å². With “GSLGAQKLANTCFNEIEK [_GSLGAQK(Biotin)LANTCFNEIEK_]”, the collision cross section (charge state: 3, modification: Biotin) came to 538.06 ± 0.96 Å². In the case of “GSLGAQKLANTCFNEIEK [_GSLGAQK(Butyryl)LANTCFNEIEK_]”, under setting [12], the collision cross section came out at 475.25 ± 0.74 Å². Consider “GSLGAQKLANTCFNEIEK [_GSLGAQK(Gluratylation)LANTCFNEIEK_]”, for which the collision cross section under setting [13] is 469.86 Å². For “GSLGAQKLANTCFNEIEK [_GSLGAQK(GlyGly (K))LANTCFNEIEK_]”, the collision cross section reads like this: under setting [14], 500.39 ± 1.8 Å²; under setting [15], 528.63 ± 18 Å². For “GSLGAQKLANTCFNEIEK [_GSLGAQK(Malonyl)LANTCFNEIEK_]”, the collision cross section is, setting by setting: under setting [16], 466.18 Å²; (charge state: 3, modification: Malonyl) 511.38 Å².
